For orientation: Kd means the free concentration of one partner at which half of the binding sites on the other are occupied at equilibrium, for simple one-to-one binding. A higher Kd goes with weaker binding.

This test concerns the target biotin-labeled PD-1 antigen (UniProt Q15116 25-167, biotin-labeled (site not stated)). Put plainly: BLI (Fortebio).

Chain of biotin-labeled PD-1 antigen (Q15116 25-167): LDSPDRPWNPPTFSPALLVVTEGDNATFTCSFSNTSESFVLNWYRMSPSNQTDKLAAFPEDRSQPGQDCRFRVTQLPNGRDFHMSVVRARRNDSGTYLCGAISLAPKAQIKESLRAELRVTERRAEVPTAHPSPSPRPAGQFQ

B1: humanized H8L2 antibody (IgG-like antibody H8L2 against PD-1) (antibody)
heavy: EVQLVQSGGGLVQPGGSLKLSCAASGFTFSSYGMSWVRQAPGKGLDWVATISGGGRDTYYPDSVKGRFTISRDNSKNNLYLQMNSLRAEDTALYYCARQKGEAWFAYWGQGTLVTVSSASTKGPSVFPLAPCSRSTSESTAALGCLVKDYFPEPVTVSWNSGALTSGVHTFPAVLQSSGLYSLSSVVTVPSSSLGTKTYTCNVDHKPSNTKVDKRVESKYGPPCPPCPAPEFLGGPSVFLFPPKPKDTLMITRTPEVTCVVVDVSQEDPEVQFNWYVDGVEVHNAKTKPREEQFNSTYRVVSVLTPLHQDWLNGKEYKCKVSNKGLPSSIEKTISKAKGQPREPQVYTLPPSQEEMTKNQVSLTCLVKGFYPSDIAVEWESNGQPENNYKTTPPVLDSDGSFFLYSRLTVDKSRWQEGNVFSCSVMHEALHAHYTQKSLSLSLGK
light: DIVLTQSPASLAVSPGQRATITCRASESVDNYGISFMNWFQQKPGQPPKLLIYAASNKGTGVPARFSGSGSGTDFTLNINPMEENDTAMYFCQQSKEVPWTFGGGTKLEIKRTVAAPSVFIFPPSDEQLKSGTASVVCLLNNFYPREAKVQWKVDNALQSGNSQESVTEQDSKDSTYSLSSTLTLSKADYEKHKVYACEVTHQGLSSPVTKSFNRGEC
With B1, the affinity, expressed as Kd, was 0.103 nM.

For the origin of these results see US20190330347A1 (published 2019).
